Patent US20150141347A1

Columns and labels:
[1] = molecular target: NY-ESO-1 157-165 peptide … (SEQ ID NO: 2) on HLA-A2 of peptide-pulsed cells; assay: cell-based or functional assay
[2] = molecular target: … (SEQ ID NO: 23) on HLA-A2 of pulsed T2 cells; assay: cell-based or functional assay
[3] = molecular target: … (SEQ ID NO: 24) on HLA-A2 of pulsed T2 cells; assay: cell-based or functional assay
[4] = molecular target: … (SEQ ID NO: 25) on HLA-A2 of pulsed T2 cells; assay: cell-based or functional assay
[5] = molecular target: … (SEQ ID NO: 26) on HLA-A2 of pulsed T2 cells; assay: cell-based or functional assay
[6] = molecular target: … (SEQ ID NO: 27) on HLA-A2 of pulsed T2 cells; assay: cell-based or functional assay
[7] = molecular target: … (SEQ ID NO: 28) on HLA-A2 of pulsed T2 cells; assay: cell-based or functional assay
[8] = molecular target: NY-ESO-1 peptide on HLA-A*02:01 (human); assay: IFN-gamma ELISA; PBL transduced with 1G4-LY, after one OKT3 stimulation, peptide-pulsed T2 cells; full-length, on cells

1G4-LY TCR
IFN-γ (pg/ml); Donor H after expanding numbers of cells, T2 + 0.1 ng/µl peptide [1]: 89 pg/mL | IFN-γ (pg/ml); Donor H after expanding numbers of cells, T2 + 1 ng/µl peptide [1]: 512 pg/mL | IFN-γ (pg/ml); Donor H after expanding numbers of cells, T2 + 10 ng/µl peptide [1]: 2970 pg/mL | IFN-γ (pg/ml); Donor H after expanding numbers of cells, T2 + 100 ng/µl peptide [1]: 4340 pg/mL | IFN-γ (pg/ml); Donor H after stimulation with OKT3, T2 + 0.1 ng/µl peptide [1]: 1400 pg/mL | IFN-γ (pg/ml); Donor H after stimulation with OKT3, T2 + 1 ng/µl peptide [1]: 1710 pg/mL | IFN-γ (pg/ml); Donor H after stimulation with OKT3, T2 + 10 ng/µl peptide [1]: 3020 pg/mL | IFN-γ (pg/ml); Donor H after stimulation with OKT3, T2 + 100 ng/µl peptide [1]: 3780 pg/mL | IFN-γ (pg/ml); Donor K PBL, T2 + 1 ng/µL peptide [1]: 678 pg/mL | IFN-γ (pg/ml); Donor K PBL, T2 + 10 ng/µL peptide [1]: 3760 pg/mL | IFN-γ (pg/ml); Donor L PBL, T2 + 1 ng/µL peptide [1]: 184 pg/mL | IFN-γ (pg/ml); Donor L PBL, T2 + 10 ng/µL peptide [1]: 754 pg/mL | IFN-γ (pg/ml); Patient 1 PBL S1D7, T2 + 0.1 ng/ml peptide [1]: 0 pg/mL | IFN-γ (pg/ml); Patient 1 PBL S1D7, T2 + 1 ng/ml peptide [1]: 677 pg/mL | IFN-γ (pg/ml); Patient 1 PBL S1D7, T2 + 10 ng/ml peptide [1]: 1090 pg/mL | IFN-γ (pg/ml); Patient 1 PBL S1D7, T2 + 100 ng/ml peptide [1]: 1600 pg/mL | IFN-γ (pg/ml); Patient 1 PBL S1D7, T2 + 1 µg/ml peptide [1]: 2170 pg/mL | IFN-γ (pg/ml); Patient 1 expanded PBL S2D9, T2 + 0.1 ng/ml peptide [1]: 1330 pg/mL | IFN-γ (pg/ml); Patient 1 expanded PBL S2D9, T2 + 1 ng/ml peptide [1]: 7260 pg/mL | IFN-γ (pg/ml); Patient 1 expanded PBL S2D9, T2 + 10 ng/ml peptide [1]: 16200 pg/mL | IFN-γ (pg/ml); Patient 1 expanded PBL S2D9, T2 + 100 ng/ml peptide [1]: 21600 pg/mL | IFN-γ (pg/ml); Patient 1 expanded PBL S2D9, T2 + 1 µg/ml peptide [1]: 30600 pg/mL | IFN-γ (pg/ml); Patient 2 PBL S1D7, T2 + 0.1 ng/ml peptide [1]: 40 pg/mL | IFN-γ (pg/ml); Patient 2 PBL S1D7, T2 + 1 ng/ml peptide [1]: 291 pg/mL | IFN-γ (pg/ml); Patient 2 PBL S1D7, T2 + 10 ng/ml peptide [1]: 879 pg/mL | IFN-γ (pg/ml); Patient 2 PBL S1D7, T2 + 100 ng/ml peptide [1]: 1280 pg/mL | IFN-γ (pg/ml); Patient 2 PBL S1D7, T2 + 1 µg/ml peptide [1]: 2440 pg/mL | IFN-γ (pg/ml); Patient 2 expanded PBL S2D9, T2 + 0.1 ng/ml peptide [1]: 662 pg/mL | IFN-γ (pg/ml); Patient 2 expanded PBL S2D9, T2 + 1 ng/ml peptide [1]: 2500 pg/mL | IFN-γ (pg/ml); Patient 2 expanded PBL S2D9, T2 + 10 ng/ml peptide [1]: 6800 pg/mL | IFN-γ (pg/ml); Patient 2 expanded PBL S2D9, T2 + 100 ng/ml peptide [1]: 10600 pg/mL | IFN-γ (pg/ml); Patient 2 expanded PBL S2D9, T2 + 1 µg/ml peptide [1]: 19400 pg/mL | lowest peptide concentration on T2 cells that was recognized (IFN-γ) [1]: 0.1 ng/mL | IFN-γ (pg/ml); Donor K PBL, T2 + 1 ng/µL peptide [2]: 1780 pg/mL | IFN-γ (pg/ml); Donor K PBL, T2 + 10 ng/µL peptide [2]: 3270 pg/mL | IFN-γ (pg/ml); Donor L PBL, T2 + 1 ng/µL peptide [2]: 370 pg/mL | IFN-γ (pg/ml); Donor L PBL, T2 + 10 ng/µL peptide [2]: 1380 pg/mL | IFN-γ (pg/ml); Donor K PBL, T2 + 1 ng/µL peptide [3]: 0 pg/mL | IFN-γ (pg/ml); Donor K PBL, T2 + 10 ng/µL peptide [3]: 0 pg/mL | IFN-γ (pg/ml); Donor L PBL, T2 + 1 ng/µL peptide [3]: 225 pg/mL | IFN-γ (pg/ml); Donor L PBL, T2 + 10 ng/µL peptide [3]: 185 pg/mL | IFN-γ (pg/ml); Donor K PBL, T2 + 1 ng/µL peptide [4]: 0 pg/mL | IFN-γ (pg/ml); Donor K PBL, T2 + 10 ng/µL peptide [4]: 0 pg/mL | IFN-γ (pg/ml); Donor L PBL, T2 + 1 ng/µL peptide [4]: 148 pg/mL | IFN-γ (pg/ml); Donor L PBL, T2 + 10 ng/µL peptide [4]: 294 pg/mL | IFN-γ (pg/ml); Donor K PBL, T2 + 1 ng/µL peptide [5]: 884 pg/mL | IFN-γ (pg/ml); Donor K PBL, T2 + 10 ng/µL peptide [5]: 1110 pg/mL | IFN-γ (pg/ml); Donor L PBL, T2 + 1 ng/µL peptide [5]: 220 pg/mL | IFN-γ (pg/ml); Donor L PBL, T2 + 10 ng/µL peptide [5]: 297 pg/mL | IFN-γ (pg/ml); Donor K PBL, T2 + 1 ng/µL peptide [6]: 457 pg/mL | IFN-γ (pg/ml); Donor K PBL, T2 + 10 ng/µL peptide [6]: 5670 pg/mL | IFN-γ (pg/ml); Donor L PBL, T2 + 1 ng/µL peptide [6]: 208 pg/mL | IFN-γ (pg/ml); Donor L PBL, T2 + 10 ng/µL peptide [6]: 1030 pg/mL | IFN-γ (pg/ml); Donor K PBL, T2 + 1 ng/µL peptide [7]: 0 pg/mL | IFN-γ (pg/ml); Donor K PBL, T2 + 10 ng/µL peptide [7]: 0 pg/mL | IFN-γ (pg/ml); Donor L PBL, T2 + 1 ng/µL peptide [7]: 82 pg/mL | IFN-γ (pg/ml); Donor L PBL, T2 + 10 ng/µL peptide [7]: 97 pg/mL | lowest peptide concentration recognised [8]: < 0.1 ng/mL

wild-type human anti-NY-ESO-1 TCR (1G4)
IFN-γ (pg/ml); Patient 1 PBL S1D7, T2 + 0.1 ng/ml peptide [1]: 99 pg/mL | IFN-γ (pg/ml); Patient 1 PBL S1D7, T2 + 1 ng/ml peptide [1]: 851 pg/mL | IFN-γ (pg/ml); Patient 1 PBL S1D7, T2 + 10 ng/ml peptide [1]: 1520 pg/mL | IFN-γ (pg/ml); Patient 1 PBL S1D7, T2 + 100 ng/ml peptide [1]: 2480 pg/mL | IFN-γ (pg/ml); Patient 1 PBL S1D7, T2 + 1 µg/ml peptide [1]: 2450 pg/mL | IFN-γ (pg/ml); Patient 1 expanded PBL S2D9, T2 + 0.1 ng/ml peptide [1]: 1280 pg/mL | IFN-γ (pg/ml); Patient 1 expanded PBL S2D9, T2 + 1 ng/ml peptide [1]: 6990 pg/mL | IFN-γ (pg/ml); Patient 1 expanded PBL S2D9, T2 + 10 ng/ml peptide [1]: 13500 pg/mL | IFN-γ (pg/ml); Patient 1 expanded PBL S2D9, T2 + 100 ng/ml peptide [1]: 19400 pg/mL | IFN-γ (pg/ml); Patient 1 expanded PBL S2D9, T2 + 1 µg/ml peptide [1]: 26400 pg/mL | IFN-γ (pg/ml); Patient 2 PBL S1D7, T2 + 0.1 ng/ml peptide [1]: 41 pg/mL | IFN-γ (pg/ml); Patient 2 PBL S1D7, T2 + 1 ng/ml peptide [1]: 397 pg/mL | IFN-γ (pg/ml); Patient 2 PBL S1D7, T2 + 10 ng/ml peptide [1]: 860 pg/mL | IFN-γ (pg/ml); Patient 2 PBL S1D7, T2 + 100 ng/ml peptide [1]: 1100 pg/mL | IFN-γ (pg/ml); Patient 2 PBL S1D7, T2 + 1 µg/ml peptide [1]: 1960 pg/mL | IFN-γ (pg/ml); Patient 2 expanded PBL S2D9, T2 + 0.1 ng/ml peptide [1]: 747 pg/mL | IFN-γ (pg/ml); Patient 2 expanded PBL S2D9, T2 + 1 ng/ml peptide [1]: 3550 pg/mL | IFN-γ (pg/ml); Patient 2 expanded PBL S2D9, T2 + 10 ng/ml peptide [1]: 7350 pg/mL | IFN-γ (pg/ml); Patient 2 expanded PBL S2D9, T2 + 100 ng/ml peptide [1]: 12700 pg/mL | IFN-γ (pg/ml); Patient 2 expanded PBL S2D9, T2 + 1 µg/ml peptide [1]: 19500 pg/mL
